This test concerns the target human mesothelin (MSLN) on the cell surface (human) (UniProt Q13421). Nature of the test: FACS on MiaPaCa-MSLN #2 cells, upper histogram and table.

Chain of human mesothelin (MSLN) on the cell surface (human) (Q13421 other isoform, or with tags, fused parts or gaps limits assumed): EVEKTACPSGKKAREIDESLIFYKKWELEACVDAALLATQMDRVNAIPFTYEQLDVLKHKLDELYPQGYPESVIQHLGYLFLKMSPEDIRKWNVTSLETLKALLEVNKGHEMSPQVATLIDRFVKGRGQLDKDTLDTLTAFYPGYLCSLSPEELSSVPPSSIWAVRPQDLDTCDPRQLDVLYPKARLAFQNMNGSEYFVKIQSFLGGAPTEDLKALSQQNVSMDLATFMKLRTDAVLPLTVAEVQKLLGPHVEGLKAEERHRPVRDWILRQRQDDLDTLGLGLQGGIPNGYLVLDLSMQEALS

B1: BAY94-9343 (antibody, INN chains, looked up, V domains shown)
VH: QVELVQSGAEVKKPGESLKISCKGSGYSFTSYWIGWVRQAPGKGLEWMGIIDPGDSRTRYSPSFQGQVTISADKSISTAYLQWSSLKASDTAMYYCARGQLYGGTYMDGWGQGTLVTVSS
VL: DIALTQPASVSGSPGQSITISCTGTSSDIGGYNSVSWYQQHPGKAPKLMIYGVNNRPSGVSNRFSGSKSGNTASLTISGLQAEDEADYYCSSYDIESATPVFGGGTKLTVL
modifications: ravtansine (DM4) payload
In the case of B1, the Mean, FL2-H amounted to 2710.
